Results as given in patent publication US20150299265A1 (Molecular Partners, published 2015).
Changes are numbered by the printed parent chain. Values belong to the binder of their own block, whether it stands above or below them.

What was measured:
[1] = target: T1, Recombinant human HER2 ectodomain (human, UniProt P04626 23-652, biotinylated on primary amines (for SPR and crude extract ELISA)); assay: SPR (ProteOn); biotinylated human HER2 on neutravidin chip, monovalent DARPin injected
T1 construct: extracellular domain; also called ErbB2; ectodomain of human HER2; not shown: Flag tag
Description: Protein binding kinetics of interesting purified HER2-binding DARPins were assayed by Surface Plasmon Resonance (SPR) analysis with a ProteOn array system (BioRad) using a setup, where biotinylated human HER2 was immobilized via neutravidin and the interaction was measured by adding free monovalent DARPin. The determination of Kd values was performed according to standard procedures.
SPR was measured using a ProteOn instrument (BioRad) and measurement was performed according standard procedures known to the person skilled in the art. The running buffer was PBS, pH 7.4, containing 0.005% Tween 20®. Neutravidin was covalently immobilized on a GLC chip (BioRad) to a level of about 8000 resonance units (RU). Immobilization of HER2 on the neutravidin coated chip was then performed. […] The signals (i.e. resonance unit (RU) values) of an uncoated reference cell and a reference injection (i.e. injection of running buffer only) were subtracted from the RU traces obtained after injection of […] (double-referencing). From the SRP traces obtained from the on-rate and off-rate measurements the on- and off-rate of the corresponding DARPin HER2 interaction can be determined.
Dissociation constants (Kd) were calculated from the estimated on- and off-rates using standard procedures known to the person skilled in the art.

[2] = target: T2, Human HER2 expressed on tumour cells (human, UniProt P04626 23-1255); assay: cell-based or functional assay
[3] = target: T2, Human HER2 expressed on tumour cells; assay: cell-based or functional assay; remark: listed apart in the source

B1: DARPin #9 (designed binder)
chain: MRGSHHHHHHGSDLGHKLLEAAVAGQDDEVRILLAAGADVNAKDWYGKTPLHFAAGLGHLEIVEVLLKAGADVNAKDEDGQTPLHLAAAYGHLEIVEVLLKAGADVNAQDNDGFTPADLAADSGHEDIAEVLQKLN
notes: monovalent
Kd [1]: 417 pM

B2: DARPin #41 (designed binder)
chain: MRGSHHHHHHGSDLGAKLLSDLGVKLLWAAARGQDDEVRILLAAGADVNAKDFQGITPLHIAAQSGHLEIVEVLLKAGADVNAKDVTGDTPLHLAAQHGHLVIVEVLLKAGADVNAQDERGWTPADLAADWGHEDIAEVLQKLGGGGSGGGGSRSDLGKKLLEAARAGQDDEVRILMANGADVNAKDEYGLTPLYLATAHGHLEIVEVLLKNGADVNAVDAIGFTPLHLAAFIGHLEIAEVLLKHGADVNAQDKFGKTAFDISIGNGNEDLAEILQKLN
IC50, inhibition of BT474 proliferation (single experiment of FIG. 2A) [2]: ~2000 pM | % activity vs. DARPin # 41, BT474 cell proliferation [3]: 100% | IC50 [nM], inhibition of BT474 cell proliferation (BrdU) [3]: 4.01 nM

B3: DARPin #12 (designed binder)
chain: MRGSHHHHHHGSDLGKKLLEAARAGQDDEVRILMANGADVNAKDFYGITPLHLAAAYGHLEIVEVLLKHGADVNAHDWNGWTPLHLAAKYGHLEIVEVLLKHGADVNAIDNAGKTPLHLAAAHGHLEIVEVLLKYGADVNAQDKFGKTAFDISIDNGNEDLAEILQKLN
notes: monovalent
Kd [1]: 1410 pM

B4: DARPin #35 (designed binder)
chain: MRGSHHHHHHGSDLGIKLLFAAAKGQDDEVRILLAAGADVNAKDFEGYTPLHVAAYDGHLEIVEVLLKAGADVNAKDSQGRTPLHEAAYSGHLEIVEVLLKAGADVNAQDDAGETPADLAAAWGHEDIAEVLQKLGGGGSGGGGSRSDLGIKLLQAANLGQDDEVRILLATGADVNAKDSIGQTPLHWAARRGHLEIVEVLLKAGADVNAKDEYGVTPLHLAASLGHLEIVEVLLKAGADVNAQDESGETPADLAALHGHEDIAEVLQKLN
% activity vs. DARPin # 41, BT474 cell proliferation [3]: 63% | IC50 [nM], inhibition of BT474 cell proliferation (BrdU) [3]: 4.63 nM

B5: DARPin #14 (designed binder)
chain: MRGSHHHHHHGSDLGAKLLIAATVGQDDEVRILLAAGADVNAKDTIGHTPLHRAAFVGQLEIVEVLLKAGADVNAQDDYGWTPADLAANSGHEDIAEVLQKLN
notes: monovalent
Kd [1]: 1880 pM

B6: DARPin #15 (designed binder)
chain: B5 chain with I20V, V24S, T45R, H48F, Q59H, Y79F, W81H, N89S, S90L
notes: monovalent
Kd [1]: 468 pM

B7: DARPin #7 (designed binder)
chain: MRGSHHHHHHGSDLGIKLLFAAAKGQDDEVRILLAAGADVNAKDFEGYTPLHVAAYDGHLEIVEVLLKAGADVNAKDSQGRTPLHEAAYSGHLEIVEVLLKAGADVNAQDDAGETPADLAAAWGHEDIAEVLQKLN
notes: monovalent
Kd [1]: 1030 pM

B8: DARPin #53 (designed binder)
chain: MRGSHHHHHHGSDLGAKLLWAAAKGQDDEVRILLAAGADVNAKDWEGVTPLHIAAHAGHLEIVEVLLKAGADVNAKDIIGWTPLHSAAVYGHLEIVEVLLKAGADVNAQDWYGTTPADLAAWWGHEDIAVVLQKLN
notes: monovalent
Kd [1]: 1460 pM

B9: DARPin #16 (designed binder)
chain: MRGSHHHHHHGSDLGIKLLQAANLGQDDEVRELLKAGADVNAKDSIGQTPLHWAARRGHLEIVEVLLKAGADVNAKDEYGVTPLHLAASLGHLEIVEVLLKAGADVNAQDESGETPADLAALHGHEDIAEVLQKLN
notes: monovalent
Kd [1]: 2670 pM

B10: DARPin #17 (designed binder)
chain: B9 chain with I16L, E32I, K35A, E111T, S112A, E114Q, L122D, H123D, E130V
notes: monovalent
Kd [1]: 2300 pM

B11: DARPin #51 (designed binder)
chain: MRGSHHHHHHGSDLGNKLLIAASVGQDDEVRILLAAGADVNAKDETGWTPLHLAAAWGHLEIVEVLLKAGADVNAKDVKGQTPLHLAAAYGHLEIVEVLLKAGADVNAQDNDGYTPADLAARYGHEDIAEVLQKLN
notes: monovalent
Kd [1]: 1300 pM

B12: DARPin #8 (designed binder)
chain: MRGSHHHHHHGSDLGIKLLWAAAHGQDDEVRILLAADADVNAKDWYGTTPLHIAAVAGHLEIVEVLLKAGADVNAKDDFGTTPLHLAAYHGHLEIVEVLLKAGADVNAQDWQGQTPADLAAQDGHEDIAEVLQKLN
notes: monovalent
Kd [1]: 483 pM

B14: DARPin #60 (designed binder)
chain: MRGSHHHHHHGSDLGVKLLWAAARGQDDEVRELLKAGADVNAKDFQGITPLHIAAQSGHLEIVEVLLKAGADVNAKDVTGDTPLHLAAQHGHLEIVEVLLKAGADVNAQDERGWTPADLAADWGHEDIAEVLQKLN
notes: monovalent
Kd [1]: 11.7 pM

B15: DARPin #2 (designed binder)
chain: B14 chain with Q56T, V78I, D81E, L86H, Q89D, H90S, E111K, R112A, W114V, D122A
notes: monovalent
Kd [1]: 875 pM

B25: DARPin #56 (designed binder)
chain: B14 chain with V16Q, W20I, A23S, E32I, K35A, I48V, A117T
notes: monovalent
Kd [1]: 2000 pM

B26: DARPin #10 (designed binder)
chain: MRGSHHHHHHGSDLGVKLLWAASHGQDDEVRILLAAGADVNAKDFFGITPLHQAAWGHLEIVEVLLKAGADVNAKEEDGTTPLHLAATHGHLEIVEVLLKAGADVNAQDWYGTTPADLAAWWGHEDIAEVLQKLN
notes: monovalent
Kd [1]: 1030 pM

B27: DARPin #21 (designed binder)
chain: MRGSHHHHHHGSDLGKKLLEAARAGQDDEVRILMANGADVNATDIHGHTPLHLAAAMGHLEIVEVLLKNGADVNANDWRGFTPLHLAALNGHLEIVEVLLKNGADVNATDTAGNTPLHLAAWFGHLEIVEVLLKNGADVNAQDKFGKTAFDISIDNGNEDLAEILQKLN
notes: monovalent
Kd [1]: 1650 pM

B28: DARPin #18 (designed binder)
chain: MRGSHHHHHHGSDLGKKLLEAARAGQDDEVRILMANGADVNAKDEYGLTPLYLATAHGHLEIVEVLLKNGADVNAVDAIGFTPLHLAAFIGHLEIAEVLLKHGADVNAQDKFGKTAFDISIGNGNEDLAEILQKLN
notes: monovalent
Kd [1]: 335 pM

B29: DARPin #11 (designed binder)
chain: MRGSHHHHHHGSDLGIKLLFAASRGQDDEVRILLAAGADVNAKDFEGITPLHAAARSGHLEIVEVLLKAGADVNAKDVEGWTPLHYAASYGHLEIVEVLLKAGADVNAQDNHGATPADLAAQWGHEDIAEVLQKLN
notes: monovalent
Kd [1]: 256 pM

B30: DARPin #19 (designed binder)
chain: MRGSHHHHHHGSDLGKKLLEAARAGQDDEVRELLKAGADVNAKDEYGLTPLYLATAHGHLEIVEVLLKNGADVNAVDAIGFTPLHLAAFIGHLEIAEVLLKHGADVNAQDKSGKTPADLAAGAGHEDIAEVLQKLN
notes: monovalent
Kd [1]: 944 pM

B31: DARPin #20 (designed binder)
chain: B30 chain with N69A, H102A, S112F, L119I, H125N
notes: monovalent
Kd [1]: 258 pM

Further lines, results first:

Kd [1]: 137 pM
B13: DARPin #52 (designed binder)
chain: B12 chain with I16V, L86A, Y89D, H90Y, W111Y, Q112T, Q114H, Q122V, D123Y, E130A
notes: monovalent

Kd [1]: 186 pM
B16: DARPin #4 (designed binder)
chain: B14 chain with W114K
notes: The list of constructs skips DARPin #4

Kd [1]: 9.27 pM
B17: DARPin #54 (designed binder)
chain: B14 chain with V16I, W20F, R24K, I48V
notes: monovalent

Kd [1]: 60.4 pM
B18: DARPin #57 (designed binder)
chain: B14 chain with V16I, R24Q, E32I, K35A, I48V, I62V
notes: monovalent

Kd [1]: 29.2 pM
B19: DARPin #6 (designed binder)
chain: B14 chain with K17N, A23T, E32I, K35A, Q46E, I48V, I53L, S57W
notes: monovalent

Kd [1]: 13.1 pM
B20: DARPin #3 (designed binder)
chain: B14 chain with V16I, W20F, R24K, G25S, E32I, K35A, G47S, I48V
notes: monovalent

Kd [1]: 78.1 pM
B21: DARPin #1 (designed binder)
chain: B14 chain with E32I, K35A, E94V
notes: monovalent

Kd [1]: 87.3 pM
B22: DARPin #55 (designed binder)
chain: B14 chain with V16I, W20I, A23S, R24H, E32I, K35A, D39N, I48V
notes: monovalent

Kd [1]: 41.3 pM
B23: DARPin #58 (designed binder)
chain: B14 chain with V16F, W20F, R24K, G25S, E32I, K35A, I48V, P50S
notes: monovalent

Kd [1]: 33.3 pM
B24: DARPin #59 (designed binder)
chain: MRGSHHHHHHGSDLGVKLLWAAARGQDDEVRELLKAGADVNAKDFQGITPLHIAATNGHLEIVEVLLKAGADVNAKDITGETPLHHAADSGHLEIVEVLLKAGADVNAQDKAGVTPADLAAAWGHEDIAEVLQKLN
notes: monovalent

Kd [1]: 70.8 pM
B32: DARPin #5 (designed binder)
chain: B24 chain with E32I, K35A
notes: monovalent
